# Molecular target: human prostate specific antigen (PSA) labelled with biotin (human) (UniProt P07288)
# Experiment: 5-mer peptide microarray, biotin-PSA 100 ng/ml, Streptavidin Cy5 detection
# Sequence of human prostate specific antigen (PSA) labelled with biotin (human) (P07288 25-261 limits assumed): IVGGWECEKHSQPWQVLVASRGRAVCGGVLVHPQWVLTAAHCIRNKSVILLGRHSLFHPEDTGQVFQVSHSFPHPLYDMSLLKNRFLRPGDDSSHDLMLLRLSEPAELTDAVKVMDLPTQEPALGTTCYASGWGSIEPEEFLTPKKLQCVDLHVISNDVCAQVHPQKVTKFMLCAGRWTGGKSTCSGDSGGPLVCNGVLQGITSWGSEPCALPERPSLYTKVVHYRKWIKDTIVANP
Molecule,rank by binding signal to PSA (among 405 top sequences) [rank],rank in the list of 405 sequences with the highest average signal intensity [rank]
WEVHL (peptide),28,
RSILY (peptide),,307
FEVYL (peptide),1,
WTVYA (peptide),3,

# Molecular target: T1, human prostate specific antigen (PSA) labelled with biotin (human, UniProt P07288 25-261, labelled with biotin using EZ-Link NHS-PEG4-biotinylation kit)
# T1 construct: Applied in solution at 100 ng/ml to the peptide arrays and detected with Streptavidin Cy5
# T1 sequence (P07288 25-261 limits assumed): as above
# Experiment: Extension Array (160,000 members, 5 replicates), biotin-PSA, Streptavidin Cy5 detection
# Experimental: (§1) Binding Assay: PSA labelled with biotin using EZ-Link NHS-PEG4-biotinylation kit (Thermo Fisher Sci., Inc. Rockford, Ill.) was incubated in SecureSeal hybridization chamber (Grace Bio-Labs, Bend, Oreg.) at concentration 100 ng/ml in 1×TE binding buffer with 1% alkali soluble casein at 25° C. for 12 hrs. Array was washed 3× with 1×TE buffer and stained with Streptavidin Cy5 in 1× binding buffer with 1% alkali soluble casein at 25 C for 1 hr, and washed 3× with 1×TE buffer and finally with 0.1×TE buffer and scanned using a 2 micrometer MS200 scanner (Roche/Nimblegen, Madison, Wis.).
# Two dominant F[QET]VY[LI] and W[QET]V[YH][LAV] clusters described above were related by having similar amino acids F or W at position 1 and V at position 3. To find other possible binder motifs we excluded sequences with these features from the 5-mer Array data and performed PEPLIB analysis with top 32 sequences from the remaining dataset as shown in FIG. 11. […] Four sequences, FEVYL (SEQ ID NO: 1), WTVYA (SEQ ID NO: 2), WEVHL (SEQ ID NO: 3), and RSILY (SEQ ID NO: 4), selected from the 5-mer Array were extended by all possible dimers at both N- and C-terminus using all 20 natural amino acids (×) to design Extension Arrays each of them consisting of 160,000 members synthesized in 5 replicates (Table 2). Top twelve sequences for each library selected by signal intensity of PSA binding were used to generate Logo plots shown in FIG. 12. […] For example, FEVYL motif (SEQ ID NO: 1) prefers exclusively P at the C-terminus, WTVYA motif (SEQ ID NO: 2) prefers acidic amino acid either D or E at the N-terminus and G at the C-terminus, whereas RSILY motif (SEQ ID NO: 4) prefers C at the C-terminus, an amino acid that was not present in the 5-mer arrays.
row,Molecule,binding result
1,SEWTVYAGN,binds
2,SCRSILYGQ,binds
3,NGFEVYLPG,binds
4,TGWEVHLGK,binds

# Molecular target: T1, human prostate specific antigen (PSA) …
# Experiment: Double Substitution/Deletion Array, biotin-PSA, Streptavidin Cy5 detection
# Experimental: as §1
# The top sequences selected from the Extension Array (Table 2, column 3) were used to design Double Substitution/Deletion Arrays as shown in column 4 of Table 2. Single and double substitution scan performed as described in Example 3 were used to optimize PSA binders to achieve highest signal intensity and confirm specificity of each amino acid in motif sequence (Table 2, column 5).
row,Molecule,binding result
1,GTGFEVYIPGA,binds
2,QSCRSILYGDG,binds
3,ASEWTVYAGNK,binds
4,GTGWEVHLGKG,binds

# Reference: patent US20190086411A1 (ROCHE SEQUENCING SOLUTIONS, published 2019)
